These results are taken from patent US10925971B2, “Methods of treating PRLR positive breast cancer” (Regeneron Pharmaceuticals, Inc., priority 2016, dated 2021).

The target of assay [1] is T1, human PRLR on HEK293/hPRLR cells (Homo sapiens, UniProt P16471).
T1 construct: HA; expressed in transfected cells; host or cells: HEK293
T1 sequence (P16471 25-622): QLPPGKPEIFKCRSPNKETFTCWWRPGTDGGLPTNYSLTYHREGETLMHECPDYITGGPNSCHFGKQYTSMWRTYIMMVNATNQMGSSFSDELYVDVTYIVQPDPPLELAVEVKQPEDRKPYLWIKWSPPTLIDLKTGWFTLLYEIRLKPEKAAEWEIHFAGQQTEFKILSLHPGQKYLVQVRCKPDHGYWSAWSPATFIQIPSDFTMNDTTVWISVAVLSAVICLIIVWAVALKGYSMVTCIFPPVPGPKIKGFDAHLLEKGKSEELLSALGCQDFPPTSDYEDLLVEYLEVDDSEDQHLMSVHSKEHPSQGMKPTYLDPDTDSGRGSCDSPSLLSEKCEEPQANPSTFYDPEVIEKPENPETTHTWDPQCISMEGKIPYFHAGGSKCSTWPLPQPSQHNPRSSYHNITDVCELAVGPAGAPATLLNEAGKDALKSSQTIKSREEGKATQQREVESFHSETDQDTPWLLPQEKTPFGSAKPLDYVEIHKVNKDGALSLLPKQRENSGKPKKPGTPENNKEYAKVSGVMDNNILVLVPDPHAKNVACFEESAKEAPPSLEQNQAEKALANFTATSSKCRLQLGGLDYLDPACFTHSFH
The experiment in a line: FACS cell surface binding. How it is done:
(§1) The ability of anti-PRLR antibodies to selectively bind PRLR expressing cell lines was next determined. Human, monkey Macaca fascicularis, and mouse PRLR constructs with an HA tag were stably introduced into HEK293 cells via Lipofectamine 2000-mediated transfection methodology. Transfectants (HEK293/hPRLR, HEK293/mfPRLR and HEK293/mPRLR) were selected for at least 2 weeks in complete growth media plus G418.
(§2) Cell surface expression of PRLR on 293/hPRLR cells was assessed via FACS analysis. Briefly, 1×10^5 cells were incubated with 10 μg/ml of Control antibody I, or an isotype control for 30 min on ice in antibody dilution buffer. Following two washes with antibody dilution buffer, cells were incubated with 10 μg/ml of PE conjugated anti-human secondary antibodies for 30 min on ice. Following two additional washes, samples were run on a Hypercyt® cytometer and analyzed in ForeCyt™ (IntelliCyt, Albuquerque, N. Mex.). The mean fluorescence intensities (MFI) were expressed as fold change above isotype control levels (background). FACS binding confirmed that Control I selectively bound to 293/hPRLR expressing cells with MFIs that were 30 fold above background (isotype ctrl) levels and less than 2 fold binding on parental cells.
(§3) Next, the anti-PRLR antibodies were tested via FACS for selective binding to the engineered overexpressing PRLR HEK293 cell lines, as well as to non-expressing HEK293 cells and a native PRLR expressing cell line (T47D).

Assay [2] concerns the target T2, mouse PRLR on HEK293/mPRLR cells (Mus musculus, UniProt Q08501).
T2 construct: HA; expressed in transfected cells; host or cells: HEK293
T2 sequence (Q08501 20-608): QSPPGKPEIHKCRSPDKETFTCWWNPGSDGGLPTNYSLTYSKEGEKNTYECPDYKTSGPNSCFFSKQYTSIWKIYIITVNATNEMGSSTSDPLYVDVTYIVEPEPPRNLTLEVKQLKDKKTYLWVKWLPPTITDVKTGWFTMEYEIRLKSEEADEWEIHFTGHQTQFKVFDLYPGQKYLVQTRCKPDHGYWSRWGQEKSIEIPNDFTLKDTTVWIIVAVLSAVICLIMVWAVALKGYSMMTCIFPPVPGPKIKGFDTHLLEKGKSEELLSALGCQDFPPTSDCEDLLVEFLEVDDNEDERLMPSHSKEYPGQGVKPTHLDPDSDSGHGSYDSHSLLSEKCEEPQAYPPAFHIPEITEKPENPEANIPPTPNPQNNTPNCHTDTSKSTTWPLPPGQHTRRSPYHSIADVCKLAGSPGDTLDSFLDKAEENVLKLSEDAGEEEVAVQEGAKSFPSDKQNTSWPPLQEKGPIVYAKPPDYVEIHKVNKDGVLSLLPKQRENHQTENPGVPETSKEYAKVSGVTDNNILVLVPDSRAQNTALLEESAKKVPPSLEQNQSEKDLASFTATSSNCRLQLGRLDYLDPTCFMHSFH
Nature of the assay: FACS cell surface binding. Here is the method: as §1, §2, §3

In assay [3] the target is T3, monkey PRLR on HEK293/mfPRLR cells (Macaca fascicularis, UniProt A0A2K5WXK1).
T3 construct: HA; expressed in transfected cells; host or cells: HEK293
T3 sequence (A0A2K5WXK1 25-619): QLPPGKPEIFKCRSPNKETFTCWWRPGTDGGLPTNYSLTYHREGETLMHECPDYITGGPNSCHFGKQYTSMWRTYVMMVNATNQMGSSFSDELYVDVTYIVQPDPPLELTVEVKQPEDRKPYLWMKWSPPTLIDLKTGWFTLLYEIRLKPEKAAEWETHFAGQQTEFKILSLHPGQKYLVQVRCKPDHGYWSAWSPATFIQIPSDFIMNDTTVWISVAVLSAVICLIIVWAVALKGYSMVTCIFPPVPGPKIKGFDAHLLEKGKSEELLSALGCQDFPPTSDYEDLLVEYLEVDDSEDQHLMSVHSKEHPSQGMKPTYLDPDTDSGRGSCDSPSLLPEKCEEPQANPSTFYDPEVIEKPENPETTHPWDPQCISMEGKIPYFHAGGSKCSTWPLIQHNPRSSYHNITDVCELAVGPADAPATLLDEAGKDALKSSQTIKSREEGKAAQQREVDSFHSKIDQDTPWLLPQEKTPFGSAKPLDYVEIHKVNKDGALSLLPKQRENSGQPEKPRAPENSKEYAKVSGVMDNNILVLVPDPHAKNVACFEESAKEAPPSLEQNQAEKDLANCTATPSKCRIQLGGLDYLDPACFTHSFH
The experiment in a line: FACS cell surface binding. How it is done:
as §1, §2, §3

For another assay, the system named is HEK293 parental cells. The experiment in a line: FACS cell surface binding. More on the design: species or system human. How it is done:
as §1, §2, §3

In assay [4] the target is T4, native PRLR expressing T47D cells (Homo sapiens, UniProt P16471).
T4 construct: a native PRLR expressing cell line (T47D); endogenous in cells; host or cells: T47D
T4 sequence (P16471 25-622): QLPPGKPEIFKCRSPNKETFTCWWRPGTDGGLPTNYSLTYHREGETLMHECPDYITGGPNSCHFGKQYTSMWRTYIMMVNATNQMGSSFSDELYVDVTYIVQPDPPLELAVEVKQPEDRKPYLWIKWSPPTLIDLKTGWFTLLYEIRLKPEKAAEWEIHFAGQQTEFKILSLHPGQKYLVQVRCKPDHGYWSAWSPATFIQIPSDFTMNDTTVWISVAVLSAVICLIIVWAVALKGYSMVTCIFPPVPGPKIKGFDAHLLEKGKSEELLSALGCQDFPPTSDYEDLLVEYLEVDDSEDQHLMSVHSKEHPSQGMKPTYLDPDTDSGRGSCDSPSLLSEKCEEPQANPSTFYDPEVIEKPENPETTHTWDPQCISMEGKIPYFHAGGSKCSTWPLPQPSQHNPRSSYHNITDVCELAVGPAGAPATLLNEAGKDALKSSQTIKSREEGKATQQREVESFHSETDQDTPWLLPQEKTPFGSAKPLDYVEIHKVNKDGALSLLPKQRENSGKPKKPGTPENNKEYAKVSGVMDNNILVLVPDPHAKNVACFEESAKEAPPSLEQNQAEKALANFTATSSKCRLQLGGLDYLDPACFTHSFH
Nature of the assay: FACS cell surface binding. Here is the method: as §2, §3

The target of assay [5] is T5, dimeric human PRLR (hPRLR.mFc; SEQ ID NO:402) (Homo sapiens, UniProt P16471).
T5 construct: dimeric (hPRLR.mFc)
Nature of the assay: Surface plasmon resonance (Biacore T200), antibody-capture format. The format is binding. The conditions noted are these: analyte hPRLR.mFc. Here is the method: (§4) Antibodies, expressed as human IgG1 Fc (i.e., “H1H” designations), were captured onto an anti-human Fc sensor surface (mAb-capture format), and soluble monomeric (hPRLR.mmh; SEQ ID NO:401, or Macaca fascicularis (mf) PRLR.mmh; SEQ ID NO:403) or dimeric (hPRLR.mFc; SEQ ID NO:402) PRLR protein was injected over the sensor surface. Measurements were conducted on a T200 Biacore instrument. Kinetic association (ka) and dissociation (kd) rate constants were determined by processing and fitting the data to a 1:1 binding model using Scrubber 2.0 curve fitting software.
(In general: Surface plasmon resonance follows binding to a sensor surface in real time, without labels.)

Assay [6] deals with Macaca fascicularis PRLR (mfPRLR.mmh; SEQ ID NO:403). Described as above. Particulars: analyte mfPRLR.mmh. The format is binding. Here is the method: as §4
In assay [7] the target is T6, monomeric human PRLR (hPRLR.mmh; SEQ ID NO:401) (Homo sapiens, UniProt P16471).
T6 construct: soluble monomeric (hPRLR.mmh); mmh (myc-myc-hexahistidine) (C)
The assay is described as above. Particulars: analyte hPRLR.mmh. The format is binding. Here is the method:
as §4

T6 sequence (P16471 with tags, fused parts or gaps): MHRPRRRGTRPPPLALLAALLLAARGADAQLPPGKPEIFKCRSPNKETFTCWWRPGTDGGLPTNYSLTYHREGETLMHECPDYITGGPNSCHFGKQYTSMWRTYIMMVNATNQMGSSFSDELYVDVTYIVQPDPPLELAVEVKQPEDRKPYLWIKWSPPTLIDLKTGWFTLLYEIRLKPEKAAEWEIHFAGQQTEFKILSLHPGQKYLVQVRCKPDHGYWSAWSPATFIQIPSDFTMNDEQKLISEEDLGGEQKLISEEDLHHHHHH
Macaca fascicularis PRLR (mfPRLR.mmh; SEQ ID NO:403), sequence (as listed by the source): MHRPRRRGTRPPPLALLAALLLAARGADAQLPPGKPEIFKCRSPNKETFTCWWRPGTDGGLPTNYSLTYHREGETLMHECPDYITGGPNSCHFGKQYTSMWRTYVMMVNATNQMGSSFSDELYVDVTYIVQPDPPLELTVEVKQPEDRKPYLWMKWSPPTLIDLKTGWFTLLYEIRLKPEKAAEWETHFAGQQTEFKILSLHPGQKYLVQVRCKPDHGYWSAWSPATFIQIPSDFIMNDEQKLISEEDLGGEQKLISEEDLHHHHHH
T5 sequence (P16471 with tags, fused parts or gaps): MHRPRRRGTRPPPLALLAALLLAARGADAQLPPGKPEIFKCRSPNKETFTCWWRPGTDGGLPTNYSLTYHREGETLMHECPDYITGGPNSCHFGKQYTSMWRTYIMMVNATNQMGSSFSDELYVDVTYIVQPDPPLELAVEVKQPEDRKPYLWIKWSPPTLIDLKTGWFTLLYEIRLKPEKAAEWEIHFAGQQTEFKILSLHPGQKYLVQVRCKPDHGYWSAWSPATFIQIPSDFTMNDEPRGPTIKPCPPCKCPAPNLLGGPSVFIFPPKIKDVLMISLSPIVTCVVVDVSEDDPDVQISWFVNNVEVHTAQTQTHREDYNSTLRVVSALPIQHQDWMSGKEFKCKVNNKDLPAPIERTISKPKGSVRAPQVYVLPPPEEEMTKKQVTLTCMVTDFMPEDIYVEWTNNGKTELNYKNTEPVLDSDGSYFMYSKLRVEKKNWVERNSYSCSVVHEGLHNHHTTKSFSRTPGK

B1: H1H6966N: anti-PRLR antibody, human IgG1 Fc form of H2M6966N of Table 1; HCVR/LCVR SEQ ID NOs 338/346 (antibody, V domains shown)
VH: QVQLVQSGAEVQKPGASVKVSCKVSGYTLTALSIHWVRQAPGKGLEWMGNFDPGDGETIHAQKFQGRVTMTGDTSTDTAYMELSSLRSEDTAVYYCVGVTFDYWGQGTLVTVSS
VL: EIVMTQSPATLSVSPGERATLSCRASQSVASNLAWYQQKPGQAPRLLLYGASTRATGIPARFSGSGSGTEFTLTISSLQSEDFALYYCQHYNNWPLTFGGGTKVEIK
modifications: human IgG1 Fc
As for B1, the “FACS Cell Binding” value is 29 Fold Above Background in assay [1]; 1 Fold Above Background in assay [2]; 18 Fold Above Background in assay [3]; 1 Fold Above Background with HEK293 parental cells; 31 Fold Above Background in assay [4]. Also, the ka in assay [5] (25° C.) was 931000 M/s; in assay [5] (37° C.), 1.88e+06 M/s; in assay [6] (25° C.), 782000 M/s; in assay [6] (37° C.) it was 1.22e+06 M/s; in assay [7] (25° C.) it was 852000 M/s; in assay [7] (37° C.), 1.58e+06 M/s. Also, the kd in assay [5] (25° C.) was determined as 4.08e-05 s⁻¹; in assay [5] (37° C.), 0.000127 s⁻¹; in assay [6] (25° C.) it was 0.000325 s⁻¹; in assay [6] (37° C.) it was 0.0012 s⁻¹; in assay [7] (25° C.) it was 0.000257 s⁻¹; in assay [7] (37° C.), 0.00096 s⁻¹.

B2: H1H6960N: anti-PRLR antibody, human IgG1 Fc form of H2M6960N of Table 1; HCVR/LCVR SEQ ID NOs 322/330 (antibody, V domains shown)
VH: EVQLVESGGGLVKPGGSLRLSCAASGITFSSYSMNWVRQAPGKGLEWVSSISTRSSLIHYADSVKGRFTISRDNAKNSLYLQMNSLRDEDTAVYYCARWDAAAAFDYWGQGTLVIVSS
VL: DIQLTQSPSFLSASVGDRVTITCWASQGISSYLAWYQQKPGKAPKLLIYVASTLQSGVPSRFSGSGSGTEFTLTISSLQPEDFATYFCQQLNSYPLTFGGGTKVEIK
modifications: human IgG1 Fc
With B2, the “FACS Cell Binding” value in assay [1] was determined as 29 Fold Above Background; in assay [2] it was 1 Fold Above Background; in assay [3], 23 Fold Above Background; in the assay with HEK293 parental cells, 1 Fold Above Background; in assay [4] it was 33 Fold Above Background. Besides, the ka in assay [5] (25° C.) came out at 252000 M/s; in assay [5] (37° C.), 294000 M/s; in assay [6] (25° C.) it was 94000 M/s; in assay [6] (37° C.), 86400 M/s; in assay [7] (25° C.), 108000 M/s; in assay [7] (37° C.), 122000 M/s. The kd in assay [5] (25° C.) was 3.56e-05 s⁻¹; in assay [5] (37° C.), 0.000147 s⁻¹; in assay [6] (25° C.) it was 0.000583 s⁻¹; in assay [6] (37° C.), 0.00128 s⁻¹; in assay [7] (25° C.), 0.000729 s⁻¹; in assay [7] (37° C.), 0.00198 s⁻¹.

B3: H1H6959N2: anti-PRLR antibody, human IgG1 Fc form of H2M6959N2 of Table 1; HCVR/LCVR SEQ ID NOs 306/314 (antibody, V domains shown)
VH: EVQLVESGGGLVQPGRSLRLSCAASGFTFDDYAMHWVRQAPGKGLEWVSGISWHSGIIGYADSVKGRFTISRDNAKNSLYLQMNSLRTEDAALYYCAKIGSYFYFDSWGQGTLVTVSS
VL: EIVLTQSPGTLSLSPGERATLSCRASQSVSSNYLAWYQQKPGQAPRLLIYGASSRATGIPDRFSGSGSGTDFTLTISRLEPEDFAVYYCQQFGSSGYTFGQGTNLEIK
Consider B3, for which the “FACS Cell Binding” value is recorded as 6 Fold Above Background in assay [1]; 2 Fold Above Background in assay [2]; 11 Fold Above Background in assay [3]; 1 Fold Above Background with HEK293 parental cells; 9 Fold Above Background in assay [4]. Further, the ka was determined as 359000 M/s in assay [5] (25° C.); 509000 M/s in assay [5] (37° C.); 129000 M/s in assay [6] (25° C.); 44600 M/s in assay [6] (37° C.); 179000 M/s in assay [7] (25° C.); 40600 M/s in assay [7] (37° C.). Moreover, the kd in assay [5] (25° C.) was found to be 0.000518 s⁻¹; in assay [5] (37° C.), 0.0023 s⁻¹; in assay [6] (25° C.), 0.0167 s⁻¹; in assay [6] (37° C.) it was 0.0165 s⁻¹; in assay [7] (25° C.), 0.036 s⁻¹; in assay [7] (37° C.), 0.0277 s⁻¹.
